This note sets out measurements from PMC2955587, “Novel β-N-acetylglucosaminidases from Vibrio harveyi 650: Cloning, expression, enzymatic properties, and subsite identification” (BMC Biochemistry, 2010).

Broadly, the Km is the concentration of substrate that gives half-maximal velocity. The term kcat denotes the number of substrate molecules converted per active site and unit of time at saturation. For orientation: kcat/Km means the turnover number divided by the Michaelis constant.

Data set [1] relates to CC(=O)N[C@H]1[C@H](Oc2ccc([N+](=O)[O-])cc2)O[C@H](CO)[C@@H](O)[C@@H]1O. Kind of data set: purified protein. Conditions: 0.1 M phosphate pH 7.0, 37°C, 0-500 μM substrate, enzyme unstable.
Substrate in data set [2]: CC(=O)N[C@H]1[C@H](Oc2ccc([N+](=O)[O-])cc2)O[C@H](CO)[C@@H](O)[C@@H]1O
Nature of the data set: initial rates, reducing sugar (DNS) assay, nonlinear regression. The data set is classed as biochemical, Vibrio harveyi. Conditions: 0.1 M phosphate pH 7.0, 37°C, 0-500 μM substrate. The source says: initial rates, reducing sugar (DNS) assay, nonlinear regression on VhNag2

Turning to VhNag1 (Vibrio harveyi), in data set [1], the Km was 172 ± 48 µM, the kcat was 0.08 s⁻¹ and the kcat/Km is 465 M⁻¹ s⁻¹.

B1: VhNag2 (Vibrio harveyi) (protein)
chain: EYRVDLVVLSEQKQNCRFGLTFHNLSDQDLNSWGLTFAFDRYILPDSVSNGQLTQIGSFCTLKPEGIVLAANHHYYCEFSIGSNPFRYYSDGFNEAMIDFVVDGQPQRAQVDVTPIVLASPYRERSDIPASLTHAQPLLPKPNHIEVSDHSFTFDEQAGVAIYTDLANSAKAWLLEELQRIHQFTLSSSNSGKIIFKSNPTLDEGAYKLKVSEESIKIEAGSSSGFTHACATLLQLLKRDEATKTMEAVCCSIIDSPRFRYRGMMLDCARHFHSVEQVKRLINLLAHYKLNTFHWHLTDDEGWRVEIKSLPQLTEIGAWRGIDETIEPQYTHLSQRYGGFYTQEEIRDVIAFAEQRGITIIPEIDVPGHCRAAIKSLPHLLIEAEDTTEYRSIQHYNDNVINPALPGSYEFIDKVLEEIAALFPAPYVHIGADEVPNGVWSKSPACQALMEQLGYTDYKELQGHFLRHAEDKLRKLGKRMLGWEEAQHGNKVSKDTVIYSWLSEEAALNCARQGFDVVLQPAQTTYLDMTQDYAPEEPGVDWANPLPLEKAYNYEPLAEVPADDPIRKRIWGIQTALWCEIINNPSRMDYMIFPRLTAMAEACWTEKQHRDWTDYLSRLKGHLPLLDLQGVNYRKPWK
notes: full-length, 1,926 bp, 73,143 Da, C-terminal His6 (pQE60), E. coli M15, Ni-NTA; no signal peptide predicted
For B1, in data set [2], the Km worked out at 77 ± 17 µM, the kcat came to 0.38 s⁻¹ and the kcat/Km is 4940 M⁻¹ s⁻¹.
